Results on 1 molecule are retold here after patent US20210030857A1 (NGM BIOPHARMACEUTICALS, published 2021).

Several values for one entry are separate records, joined by “and”; a condition that tells them apart may be missing. Identical values can stand only once.

Assay [1] has as its target T1, human beta klotho protein (soluble, used in Biacore) (human, UniProt Q86Z14 53-997, limits assumed).
T1 construct: also called HuKLB; huKLB
T1 sequence: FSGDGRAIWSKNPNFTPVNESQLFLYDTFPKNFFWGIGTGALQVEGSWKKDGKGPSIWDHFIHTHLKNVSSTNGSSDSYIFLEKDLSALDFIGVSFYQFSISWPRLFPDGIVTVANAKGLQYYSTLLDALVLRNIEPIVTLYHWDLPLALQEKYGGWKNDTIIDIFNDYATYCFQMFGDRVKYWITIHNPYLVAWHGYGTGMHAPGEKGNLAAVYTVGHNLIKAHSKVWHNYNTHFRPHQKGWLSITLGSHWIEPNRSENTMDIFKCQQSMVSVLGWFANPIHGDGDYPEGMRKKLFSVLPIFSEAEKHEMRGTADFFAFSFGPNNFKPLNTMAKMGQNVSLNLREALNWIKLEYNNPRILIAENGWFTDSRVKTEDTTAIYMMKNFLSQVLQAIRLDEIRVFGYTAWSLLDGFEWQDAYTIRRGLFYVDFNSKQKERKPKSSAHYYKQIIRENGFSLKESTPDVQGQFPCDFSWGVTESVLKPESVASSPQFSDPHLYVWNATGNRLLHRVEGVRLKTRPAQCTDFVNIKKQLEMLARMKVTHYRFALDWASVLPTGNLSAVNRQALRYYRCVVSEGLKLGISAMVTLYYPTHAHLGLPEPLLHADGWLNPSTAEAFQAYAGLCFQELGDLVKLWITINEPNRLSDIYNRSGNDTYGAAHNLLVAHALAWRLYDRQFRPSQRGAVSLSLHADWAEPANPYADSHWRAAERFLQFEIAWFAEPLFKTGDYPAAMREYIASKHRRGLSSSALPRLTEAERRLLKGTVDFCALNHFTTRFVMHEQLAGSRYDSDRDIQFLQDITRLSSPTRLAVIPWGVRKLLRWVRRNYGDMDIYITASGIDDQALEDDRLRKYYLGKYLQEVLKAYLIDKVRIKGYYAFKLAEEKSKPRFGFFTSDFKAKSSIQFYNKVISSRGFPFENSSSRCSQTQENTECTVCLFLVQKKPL
The assay is described as follows: Biacore SPR (as in Example 2).

Assay [2] has as its target T2, human beta klotho mutant H657A on HEK-293T cells (human, UniProt Q86Z14 1-1044).
T2 sequence: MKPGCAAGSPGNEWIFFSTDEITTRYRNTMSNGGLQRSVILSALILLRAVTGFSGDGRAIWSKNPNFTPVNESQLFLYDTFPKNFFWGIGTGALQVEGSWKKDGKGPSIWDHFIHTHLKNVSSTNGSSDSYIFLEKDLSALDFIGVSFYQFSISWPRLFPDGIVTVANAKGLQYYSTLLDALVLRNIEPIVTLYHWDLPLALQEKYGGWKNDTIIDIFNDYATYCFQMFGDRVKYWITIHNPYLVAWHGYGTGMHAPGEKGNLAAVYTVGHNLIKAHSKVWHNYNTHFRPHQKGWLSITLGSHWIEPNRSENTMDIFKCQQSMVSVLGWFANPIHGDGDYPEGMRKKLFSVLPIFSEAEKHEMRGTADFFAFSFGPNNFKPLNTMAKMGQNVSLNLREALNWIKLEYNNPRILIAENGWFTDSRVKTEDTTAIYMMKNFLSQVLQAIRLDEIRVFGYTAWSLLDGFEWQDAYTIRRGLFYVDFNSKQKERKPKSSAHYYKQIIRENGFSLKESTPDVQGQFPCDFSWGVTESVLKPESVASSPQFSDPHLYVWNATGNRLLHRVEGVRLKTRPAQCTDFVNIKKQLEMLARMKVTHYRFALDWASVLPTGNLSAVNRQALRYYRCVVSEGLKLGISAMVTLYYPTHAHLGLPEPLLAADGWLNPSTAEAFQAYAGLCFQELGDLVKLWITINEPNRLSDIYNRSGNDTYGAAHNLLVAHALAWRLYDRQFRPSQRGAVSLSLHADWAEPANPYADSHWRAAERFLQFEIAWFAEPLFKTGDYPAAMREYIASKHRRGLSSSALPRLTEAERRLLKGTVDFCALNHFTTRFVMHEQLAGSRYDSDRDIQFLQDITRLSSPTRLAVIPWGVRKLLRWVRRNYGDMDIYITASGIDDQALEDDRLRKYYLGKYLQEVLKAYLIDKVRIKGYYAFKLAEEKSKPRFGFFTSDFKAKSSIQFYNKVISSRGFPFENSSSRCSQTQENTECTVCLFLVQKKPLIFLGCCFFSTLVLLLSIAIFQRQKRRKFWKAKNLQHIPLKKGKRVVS
The assay is described as follows: shotgun alanine mutagenesis, FACS on HEK-293T cells, antibody 0.5 µg/ml. As to the method: In order to further identify specific binding residues within human beta klotho KL2 domain, shotgun mutagenesis was used to separately mutate individual residues of the KL2 domain of human beta klotho to an alanine (e.g., residues F508A-L1008A). […] For example, screening of the beta klotho mutant proteins was conducted at a concentration of 0.5 μg/ml for the humanized 5H23 antibody, 1.0 μg/ml for the Fab fragment, and 2.0 μg/ml for a positive control polyclonal anti-beta klotho antibodies.
The resulting mapping identified three specific binding residues, H657, Y701 and R703, which were negative for binding by the humanized 5H23 antibody, but were positive for the control polyclonal anti-beta klotho antibodies. These residues represented amino acids whose side changes made the highest energetic contributions to the antibody-epitope interation as shown in Table 31. The locations of the three identified residues were modeled by showing them (dark spheres) at the equivalent positions on human cytosolic beta-glucosidase (PDB ID #2JFE; Tribolo et al., J. Mol. Biol. 370, 964-975 (2007)), identified by BLAST alignment of the two proteins as shown in FIG. 6.

B1: humanized 5H23 antibody (VH SEQ ID NO: 271 and VL SEQ ID NO: 276) (antibody, V domains shown)
VH: QVQLQQSGAEVKKPGASVKVSCKASGYTFTSYDINWVRQAPGQGLEWIGWIYPGDGSTKYNEKFKGKATITRDTSASTAYMELSSLRSEDTAVYFCARSDYYGSRSFAYWGQGTLVTVSS
VL: DIVMTQSPDSLAVSLGERATINCRASKSVSTSGYVYMHWYQQKPGQPPKLLIYLASYLESGVPDRFSGSGSGTDFTLTISSVQAEDVAVYYCQHSRDLTFPFGGGTKLEIK
notes: also called h5H23; h5H23 (Prep 1)
On to B1, for which, in assay [1], the Kd (as a rule, the free concentration of one partner at which half of the binding sites on the other are occupied at equilibrium, for simple one-to-one binding) was 0.64 nM and 0.58 nM. In addition, the “Binding Reactivity (% WT)” value in assay [2] was determined as 16.9 % WT.
